# Measurements taken from PMC11574208, “Mechanistic basis of atypical TERT promoter mutations”.
# Assays:
# Conditions in all cases: protein: recombinant;recombinant; tags: ;N-terminal His; copies: 1;1; label: 5'-32P on forward (C-rich) strand; blunt
# [1] = biological target: T1, GABPA (GABP alpha);GABPB (GABP beta1L) (human?;human?, UniProt Q06546;Q06547 1-454;1-395, |); experiment: DNase I footprinting; 5 uM GABP; bound via native site, not at the unmutated proto-sites; 20 mM Tris-Cl pH 7.5, 5% glycerol, 5.2 mM MgCl2, 50 mM KCl, 1 mM TCEP, 20 nM oligo, 1 h room temperature; EMSA on 4% native PAGE, 0.5x TBE, 4 C
# [2] = biological target: T1, GABPA (GABP alpha);GABPB (GABP beta1L); experiment: DNase I footprinting; 5 uM GABP; -124 de novo site and native site; 20 mM Tris-Cl pH 7.5, 5% glycerol, 5.2 mM MgCl2, 50 mM KCl, 1 mM TCEP, 20 nM oligo, 1 h room temperature; EMSA on 4% native PAGE, 0.5x TBE, 4 C
# [3] = biological target: T1, GABPA (GABP alpha);GABPB (GABP beta1L); experiment: DNase I footprinting; 5 uM GABP; -146 de novo site and native site; 20 mM Tris-Cl pH 7.5, 5% glycerol, 5.2 mM MgCl2, 50 mM KCl, 1 mM TCEP, 20 nM oligo, 1 h room temperature; EMSA on 4% native PAGE, 0.5x TBE, 4 C
# T1 sequence (Q06546 whole entry, chain 1 of 2): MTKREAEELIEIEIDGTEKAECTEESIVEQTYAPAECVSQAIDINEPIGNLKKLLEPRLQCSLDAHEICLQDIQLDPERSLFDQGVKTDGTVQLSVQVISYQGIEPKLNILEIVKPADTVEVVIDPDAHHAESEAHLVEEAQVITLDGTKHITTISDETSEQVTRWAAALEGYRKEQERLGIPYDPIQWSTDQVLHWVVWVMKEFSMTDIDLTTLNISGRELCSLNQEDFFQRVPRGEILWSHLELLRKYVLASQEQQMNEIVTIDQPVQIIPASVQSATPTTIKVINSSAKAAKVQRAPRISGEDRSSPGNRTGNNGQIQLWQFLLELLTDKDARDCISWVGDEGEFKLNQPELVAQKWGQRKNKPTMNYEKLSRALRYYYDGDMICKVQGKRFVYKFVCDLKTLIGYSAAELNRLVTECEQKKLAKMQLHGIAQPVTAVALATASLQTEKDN
# T1 sequence (Q06547 whole entry, chain 2 of 2): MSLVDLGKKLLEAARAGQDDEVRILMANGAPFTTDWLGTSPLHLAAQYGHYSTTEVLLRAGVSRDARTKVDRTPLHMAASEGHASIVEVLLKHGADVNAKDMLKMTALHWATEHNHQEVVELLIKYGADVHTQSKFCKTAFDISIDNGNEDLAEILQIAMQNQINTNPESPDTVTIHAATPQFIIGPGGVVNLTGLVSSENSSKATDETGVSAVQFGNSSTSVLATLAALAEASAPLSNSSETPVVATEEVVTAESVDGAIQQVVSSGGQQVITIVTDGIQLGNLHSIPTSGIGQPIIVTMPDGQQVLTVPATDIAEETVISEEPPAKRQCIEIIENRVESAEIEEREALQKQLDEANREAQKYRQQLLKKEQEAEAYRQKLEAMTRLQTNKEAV
binder,measurement,setting,value
TERTp WT 90 (dsDNA) DNA 1: ACCCCGCCCCGTCCCGACCCCTCCCGGGTCCCCGGCCCAGCCCCCTCCGGGCCCTCCCAGCCCCTCCCCTTCCTTTCCGCGGCCCCGCCC DNA 2: GGGCGGGGCCGCGGAAAGGAAGGGGAGGGGCTGGGAGGGCCCGGAGGGGGCTGGGCCGGGGACCCGGGAGGGGTCGGGACGGGGCGGGGT,binding result,[1],binds
TERTp -124 mutant 90 (C228T) (dsDNA) DNA 1: ACCCCGCCCCGTCCCGACCCCTCCCGGGTCCCCGGCCCAGCCCCTTCCGGGCCCTCCCAGCCCCTCCCCTTCCTTTCCGCGGCCCCGCCC DNA 2: GGGCGGGGCCGCGGAAAGGAAGGGGAGGGGCTGGGAGGGCCCGGAAGGGGCTGGGCCGGGGACCCGGGAGGGGTCGGGACGGGGCGGGGT,binding result,[2],binds
TERTp -146 mutant 90 (C250T) (dsDNA) DNA 1: ACCCCGCCCCGTCCCGACCCCTTCCGGGTCCCCGGCCCAGCCCCCTCCGGGCCCTCCCAGCCCCTCCCCTTCCTTTCCGCGGCCCCGCCC DNA 2: GGGCGGGGCCGCGGAAAGGAAGGGGAGGGGCTGGGAGGGCCCGGAGGGGGCTGGGCCGGGGACCCGGAAGGGGTCGGGACGGGGCGGGGT,binding result,[3],binds
